Patent publication US20240238445A1, “INHIBITORS AND USES THEREOF” (NEURACLE SCIENCE CO., LTD., priority 2021, published 2024)
Square brackets hold non-standard residues; d marks the D form. Ends that are not written are not given here.

B1: LRRC4B (36-576): full-length ectodomain of LRRC4B protein, amino acids 36-576 of SEQ ID NO: 2; FLAG-tagged or conjugated to human Fc (protein)
chain: AGGGGVAVTSAAGGGSPPATSCPVACSCSNQASRVICTRRDLAEVPASIPVNTRYLNLQENGIQVIRTDTFKHLRHLEILQLSKNLVRKIEVGAFNGLPSLNTLELFDNRLTTVPTQAFEYLSKLRELWLRNNPIESIPSYAFNRVPSLRRLDLGELKRLEYISEAAFEGLVNLRYLNLGMCNLKDIPNLTALVRLEELELSGNRLDLIRPGSFQGLTSLRKLWLMHAQVATIERNAFDDLKSLEELNLSHNNLMSLPHDLFTPLHRLERVHLNHNPWHCNCDVLWLSWWLKETVPSNTTCCARCHAPAGLKGRYIGELDQSHFTCYAPVIVEPPTDLNVTEGMAAELKCRTGTSMTSVNWLTPNGTLMTHGSYRVRISVLHDGTLNFTNVTVQDTGQYTCMVTNSAGNTTASATLNVSAVDPVAAGGTGSGGGGPGGSGGVGGGSGGYTYFTTVTVETLETQPGEEALQPRGTEKEPPGPTTDGVWGGGRPGDAAGPASSSTTAPAPRSSRPTEKAFTVPITDVTENALKDLDDVMKTTK
modifications: FLAG tag or human Fc
B2: full-length LRRC4C protein: full-length ectodomain of LRRC4C protein, amino acids 45-527 of SEQ ID NO: 3, conjugated to human Fc (protein)
chain: QTCPSVCSCSNQFSKVICVRKNLREVPDGISTNTRLLNLHENQIQIIKVNSFKHLRHLEILQLSRNHIRTIEIGAFNGLANLNTLELFDNRLTTIPNGAFVYLSKLKELWLRNNPIESIPSYAFNRIPSLRRLDLGELKRLSYISEGAFEGLSNLRYLNLAMCNLREIPNLTPLIKLDELDLSGNHLSAIRPGSFQGLMHLQKLWMIQSQIQVIERNAFDNLQSLVEINLAHNNLTLLPHDLFTPLHHLERIHLHHNPWNCNCDILWLSWWIKDMAPSNTACCARCNTPPNLKGRYIGELDQNYFTCYAPVIVEPPADLNVTEGMAAELKCRASTSLTSVSWITPNGTVMTHGAYKVRIAVLSDGTLNFTNVTVQDTGMYTCMVSNSVGNTTASATLNVTAATTTPFSYFSTVTVETMEPSQDEARTTDNNVGPTPVVDWETTNVTTSLTPQSTRSTEKTFTIPVTDINSGIPGIDEVMKTTK
modifications: conjugated to human Fc

Experiments:
FAM19A5 protein [1] = target: T1, FAM19A5 protein (Homo sapiens, UniProt Q7Z5A7); experiment: ELISA binding of recombinant FAM19A5 to coated hFc-conjugated LRRC4 family ectodomains, fragments or synthetic peptides; conditions: for binding to FAM19A5 protein (ELISA, in words): coated 100 nM/well, FAM19A5 up to 10 nM
Description: Next, to confirm the above co-immunoprecipitation results, an ELISA assay was used to measure the binding of the FAM19A5 protein to either the full-length ectodomain of members of LRRC4 protein family or various LRRC4B ectodomain protein fragments. Specifically, an ELISA plate was coated with one of the following LRRC4B ectodomain protein, which was conjugated to human Fc (100 nM/well): (1) full-length ectodomain of LRRC4 protein (amino acid residues 39-527 of SEQ ID NO: 1) (SEQ ID NO: 4); (2) full-length ectodomain of LRRC4B protein (amino acids 36-576 of SEQ ID NO: 2; i.e., construct #7 in Table 6) (SEQ ID NO: 5); (3) full-length ectodomain of LRRC4C protein (amino acids 45-527 of SEQ ID NO: 3) (SEQ ID NO: 6); (4) LRRC4B ectodomain fragment (amino acids 453-576 of SEQ ID NO: 2; i.e., construct #11 in Table 6) (SEQ ID NO: 7); (5) LRRC4B ectodomain fragment (amino acids 484-576 of SEQ ID NO: 2; i.e., construct #12 in Table 6) (SEQ ID NO: 8); (6) LRRC4B ectodomain fragment (amino acids 482-576 of SEQ ID NO: 2) (SEQ ID NO: 9); (7) LRRC4B ectodomain fragment (amino acids 482-497 of SEQ ID NO: 2) (SEQ ID NO: 10); and (8) LRRC4B ectodomain fragment (amino acids 498-576 of SEQ ID NO: 2; i.e., construct #13 in Table 6) (SEQ ID NO: 11). Then, recombinant FAM19A5 proteins (0.005, 0.01, 0.025, 0.05, 0.1, 0.25, 0.5, 1, 2.5, 5, and 10 nM) were added to the relevant wells, and the plates were incubated at 37° C. for 1 hour. Afterwards, the amount of LRRC4B-bound FAM19A5 protein was detected using HRP-conjugated anti-FAM19A5 (1-65) antibody.
As further confirmation, three synthetic polypeptides comprising amino acids 484-497 of SEQ ID NO: 2 (i.e., YTYFTTVTVETLET; SEQ ID NO: 65) were constructed: (1) FB-16 (GYTYFTTVTVETLETQ; SEQ ID NO: 17), (2) FB-20 ([…]; SEQ ID NO: 18), and (3) FB-28 ([…]; SEQ ID NO: 19). The peptides differed in their total length. The ability of these polypeptides to bind to recombinant FAM19A5 protein was assessed using an ELISA assay as described above.

[2] = system: mouse primary cortical neurons; experiment: Neurite growth of mouse primary cortical neurons in vitro; assay type: cell-based; conditions: treated days 1 and 2, assessed day 3, anti-beta-tubulin III; LRRC4B fragment 0.006 to 60 nM; versus control
Description: Next, primary cortical neurons (day 1 postnatal) were cultured in vitro with varying concentrations (0.006 to 60 nM) of the LRRC4B (453-576) protein fragment (i.e., amino acid residues 453-576 of SEQ ID NO: 2; SEQ ID NO: 7), and then at day 3 post-initial culture, the effect on neurite growth was assessed by immunostaining the cells with anti-beta-tubulin III antibody. Cells cultured with DMSO (“Veh”) were used as control.
Mouse hippocampal neurons were treated with LRRC4B peptides at 1 and 2 DIV to determine neurite growth. It was measured by using 3 different parameters, which are total neurites length, number of primary and secondary neurites. After the neurons were stained with beta-tubulin III at 3 DIV, neurites length and branch points were measured using Fiji (Image J, NIH, Bethesda). Individual neurons were selected by hand and these parameters were counted using the Simple neurite tracer plugin. Mouse spinal motor neurons sampled at postnatal day 1 were treated with 10 nM of NS101 and LRRC4B-peptides (dFB-dWY-JM31 and dFB-DY-JM31) at 1 and 2 DIV and immunostained with Tau-5 antibody at 3 DIV. Total neurite length and number of somas in images were measured by Neurphology Image J plugin.

[3] = target: interaction between His-TEV LRRC4B and rFAM19A5 (Homo sapiens, UniProt Q7Z5A7); experiment: Competitive inhibition assay (IC50), plate coated with His-TEV LRRC4B; assay type: binding
Description: To further assess the inhibitory effect of the FB-21 mutants, the ability of additional FB-21 mutants described in Example 9 were tested for their ability to inhibit the interaction between FAM19A5 protein and LRRC4B protein. Briefly, plates were coated with 100 nM of His-TEV LRRC4B and then 1 ng/mL of rFAM19A5 was incubated at 37° C. in the presence of increasing concentrations of the FB-21 peptide fragments (0.3, 1, 3, 10, 30, 100, 300, 1000, 3000 and 10000 nM). The LRRC4B-bound FAM19A5 levels were measured using HRP-conjugated 1-65 SS01 antibody. As shown in FIG. 22B (see Table 15 for IC50), most (if not all) of the FB-21 mutants had improved ability in inhibiting the interaction between LRRC4B and recombinant FAM19A5 protein.
Next, to assess whether other properties of the polypeptides described herein can be improved (e.g., solubility, prevention of degradation from protease and peptidase, and in vivo administration), the following additional FB-21 peptide mutants were constructed and tested for their ability to inhibit the interaction between FAM19A5 protein and LRRC4B: (1) d-form FB-21 peptide (“dFB-21”), (2) d-form FB-21 peptide with juxta-membrane (JM) sequence (“dFB-JM-31”), (3) d-form FB-21 peptide with BBB penetrating sequence at each end of the sequence (“dFB-BBB-39”), and (4) d-form FB-21 mutant peptide with DY replacement and additional JM sequence (“dFB-DY-JM31”). The sequence for d-form FB-21 peptide is set forth in SEQ ID NO: 153 (nYTYFTTVTVETLETQPGEEa; wherein the lowercase amino acids represent D-form of the amino acid, and the uppercase amino acids represent L-form of the amino acid). The sequence for dFB-BBB-39 is set forth in SEQ ID NO: 154 (n[…]l; wherein the lowercase amino acids represent D-form of the amino acid, and the uppercase amino acids represent L-form of the amino acid). The sequence for dFB-JM-31 is set forth in SEQ ID NO: 155 (n[…]a; wherein the lowercase amino acids represent D-form of the amino acid, and the uppercase amino acids represent L-form of the amino acid). The sequence for dFB-DY-JM31 is set forth in SEQ ID NO: 156 (n[…]a; wherein the lowercase amino acids represent D-form of the amino acid, and the uppercase amino acids represent L-form of the amino acid). The overall experimental methods were the same as those described immediately above.

FAM19A5 protein [4] = target: T1, FAM19A5 protein; experiment: Co-immunoprecipitation of FLAG-tagged LRRC4 family deletion constructs/fragments with recombinant FAM19A5 in HEK293 cells; assay type: binding; conditions: HEK293 cells expressing FLAG-tagged construct, recombinant FAM19A5 1 μM 30 minutes; IP anti-FLAG, blot anti-FAM19A5 (3-2)
Description: To understand the interaction between FAM19A5 and members of the LRRC4 protein family, HEK293 cells were modified to express a FLAG-tagged member of the LRRC4 protein family, i.e., LRRC4C protein, LRRC4 protein, or LRRC4B protein. Then, the HEK293 cells or primary cortical neurons were treated with recombinant FAM19A5 protein (1 μM) for 30 minutes, and the binding between FAM19A5 protein and the different members of the LRRC4 protein family was assessed using both co-immunoprecipitation and immunofluorescence assays.
For the co-immunoprecipitation assay, cell lysates from the different FAM19A5-treated HEK293 cells were collected and immunoprecipitated with an anti-FLAG antibody, anti-FAM19A5 (1-65) antibody, or a human IgG antibody (control). Immunoprecipitated proteins were immunoblotted with anti-FLAG and anti-FAM19A5 (3-2) antibodies. For the immunofluorescence assay, the HEK293 cells treated with the recombinant FAM19A5 protein were immunostained with anti-FAM19A5 (3-2) (to detect FAM19A5 protein expression) and anti-FLAG antibodies (to detect member of the LRRC4 protein family). The primary cortical neurons treated with the recombinant FAM19A5 protein were immunostained with anti-FAM19A5 (3-2) and anti-LRRC4B antibodies. The nuclei were stained with Hoechst33342 (blue).
To determine the specific motif or domain of the LRRC4B protein that is responsible for the binding to a FAM19A5 protein, various FLAG-tagged LRRC4B deletion constructs were generated (see Table 6 below). HEK293 cells were transfected with the different deletion constructs and then treated with recombinant FAM19A5 protein as described in Example 1. Then, the cell lysates from the different HEK293 cells were immunoprecipitated with the anti-FLAG antibody. The immunoprecipitated proteins were immunoblotted with anti-FLAG and anti-FAM19A5 (3-2) antibodies.
As described in Example 2, all members of the LRRC4 protein family were capable of binding to FAM19A5 protein to varying degrees. Therefore, to compare the bindings domains, the amino acid sequences of the LRRC4B, LRRC4, and LRRC4C proteins were aligned. […] Therefore, to assess whether the corresponding positions of LRRC4 and LRRC4C were important in the binding of these proteins to FAM19A5 protein, cDNAs encoding either (i) LRRC4C protein fragment (amino acids 354-527 of SEQ ID NO: 3; SEQ ID NO: 66) or (ii) LRRC4 protein fragment (amino acids 353-527 of SEQ ID NO: 1; SEQ ID NO: 67) were constructed (see Table 7). HEK293 cells were transfected to express either of the protein fragments and then treated with recombinant FAM19A5 protein as described in Example 1. Then, the cell lysates from the different HEK293 cells were immunoprecipitated with the anti-FLAG antibody. The immunoprecipitated proteins were immunoblotted with anti-FLAG and anti-FAM19A5 (3-2) antibodies.

T1 sequence (Q7Z5A7 44-132): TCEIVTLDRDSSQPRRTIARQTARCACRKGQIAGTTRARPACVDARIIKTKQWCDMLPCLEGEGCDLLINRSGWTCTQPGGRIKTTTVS
Chain of interaction between His-TEV LRRC4B and rFAM19A5 (Q7Z5A7 44-132): as above

| Molecule | binding to FAM19A5 protein (ELISA, in words) (FAM19A5 protein [1]) | neurite growth / neurite outgrowth [2] | also measured |
| --- | --- | --- | --- |
| GYTYFTTVTVETLETQ [FB-16] | able to bind to recombinant FAM19A5 protein with high affinity | Increased neurite outgrowth |  |
| nYTYFTTVTVEDYETQPGEEALDEVMKTTKa ([dN]YTYFTTVTVEDYETQPGEEALDEVMKTTK[dA]; also: terminal modifications n and a on first and last residues) [dFB-DY-JM31] |  |  | fold more effective in inhibiting complex formation compared to the wild-type FB-21 ([3]; FIG. 22C, D-form amino acids at both termini): 4 fold |
| GYTYFTTVTVETLETQPGEKEPPGPTTD [FB-28] | able to bind to recombinant FAM19A5 protein with high affinity | Increased neurite outgrowth |  |
| GYTYFTTVTVEDYETQPGEE [FB-21 (D12Y13)] |  |  | fold more effective in dissociating LRRC4B-FAM19A5 complex formation compared to FB-21 ([3]; from IC50 of Table 15): 2.4 fold; fold more effective in dissociating LRRC4B-FAM19A5 complex formation compared to FB-21 (W12Y13) ([3]; from IC50 of Table 15): 7 fold |
| B1 |  |  | EC50 (FAM19A5 protein [1]; hFc-conjugated ectodomain coated 100 nM/well, FAM19A5 0.005-10 nM, 37° C. 1 hour): 0.64 nM; binding to FAM19A5 protein (co-immunoprecipitation) (FAM19A5 protein [4]): able to bind to the FAM19A5 protein with varying degree |
| B2 | No saturation in binding was observed |  |  |
